For one substance, stoichiometry N results are on record in paper PMC6806390.

The assay concerns the target Cytochrome-C, type III (Sigma C-2506) (UniProt P00004). In words: SDS-PAGE of the methanol precipitate.

Sequence of Cytochrome-C, type III (Sigma C-2506), P00004 1-105 (natural protein; other documents disagree on this pair) (P00004 whole entry): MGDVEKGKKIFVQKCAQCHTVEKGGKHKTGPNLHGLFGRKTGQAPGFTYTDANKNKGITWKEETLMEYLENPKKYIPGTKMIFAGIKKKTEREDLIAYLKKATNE

By stoichiometry N is commonly meant the number of molecules, sites or subunits per partner or assembly. “Cytochrome-C, type III (Sigma C-2506), P00004 1-105 (natural protein; other documents disagree on this pair)” came in with a stoichiometry N of over 7.
